# Data from paper PMC12152883, “Bile acids inhibit equilibrative adenosine transport to alter adenosine receptor signaling in cholestasis” (The Journal of Biological Chemistry, 2025).
# Values joined by “and” are separate entries in the source; they are usually repeats but may differ in a detail not shown here. Equal entries are not always repeated. Where two headings read alike, the source gives them in different places.
# T1: ENT2 (Homo sapiens, UniProt Q14542)
# T1 sequence (Q14542 1-456): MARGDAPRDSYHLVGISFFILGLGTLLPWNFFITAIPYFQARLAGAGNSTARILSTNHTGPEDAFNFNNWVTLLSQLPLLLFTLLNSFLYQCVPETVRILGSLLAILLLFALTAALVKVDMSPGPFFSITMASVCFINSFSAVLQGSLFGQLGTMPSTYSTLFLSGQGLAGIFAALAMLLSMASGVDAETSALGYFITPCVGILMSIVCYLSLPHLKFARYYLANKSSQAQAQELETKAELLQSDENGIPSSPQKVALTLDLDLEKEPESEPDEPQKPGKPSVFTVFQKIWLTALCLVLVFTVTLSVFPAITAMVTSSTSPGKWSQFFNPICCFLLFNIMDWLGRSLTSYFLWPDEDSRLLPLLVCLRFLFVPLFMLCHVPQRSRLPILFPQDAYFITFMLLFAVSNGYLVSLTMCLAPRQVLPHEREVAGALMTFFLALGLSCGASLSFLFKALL
# B1: ENT2 (Homo sapiens) (protein)
# chain: T1 sequence (Q14542 1-456)
# notes: The complete ORF of ENT1 (amplified using forward primer); expressed in transfected cells; host or cells: Xenopus laevis oocytes injected with in vitro-transcribed capped mRNA from pOX-hENT2
# Tests used:
# ENT2 = molecular target: T1, ENT2; conditions: cited from earlier work
# ENT3 = system: ENT3; design: method as in PMID 34144123; conditions: read-out: km of ENT3 for Ado transport; cited from earlier work
# [1] = substrate: C[C@H](CCC(=O)O)[C@H]1CC[C@H]2[C@@H]3CC[C@@H]4C[C@H](O)CC[C@]4(C)[C@H]3C[C@H](O)[C@]12C; assay: Radiolabeled BA transport in ENT2 mRNA-injected Xenopus oocytes; format: cell-based, human; conditions: pH 7.4
# Experimental: (§1) We used a Xenopus oocyte-based transport assay that was previously used to examine BA transport by plasma membrane–directed ENT3 with a truncated N-terminus (that harbors lysosomal targeting motif) to experimentally verify whether ENT2 is capable of translocating BAs across the cell membrane ([24]). We tested both ENT1 and ENT2 along with CNT2, a purine nucleoside-specific concentrative transporter, to investigate their capacities to transport radiolabeled BAs. […] Transport was measured at pH 7.4, which is the closest pH to the pH of the extracellular fluid in which cells are exposed to solutes such as BAs to conduct plasma membrane transport ([29]).
# (§2) The generated pOX expression constructs were linearized with either the Not1 or Sac1 restriction enzymes. The digested products were purified via phenol‒chloroform extraction. The mRNAs were synthesized using mMESSAGE mMACHINE (Ambion) transcription kits according to the manufacturer’s instructions. The mRNAs were purified via lithium precipitation. Oocytes were procured from Ecocyte. Prior to experiments, procured oocytes were defolliculated by treating with collagenase A-OR II solution followed by washing with Barth’s solution. Following microscopic verification, selected oocytes were incubated to recover overnight at 25 °C in a shaker incubator. Fifty nanoliters (400–800 ng/μl) of equal amounts of mRNAs were injected into defolliculated oocytes the next day. Expression of plasmids was analyzed after RNA isolation from oocyte extracts and conducting qPCR analysis with gene-specific primers as described earlier ([30]). The injected oocytes were incubated at 15 °C for 24 h before transport assays were performed. The uptake of radiolabeled substrates was measured after a 30 min incubation in transport buffer (100 mM NaCl, 2 mM KCl, 1 mM CaCl2, 1 mM MgCl2, and 10 mM Hepes, pH 7.4) at room temperature. Uptake was terminated by washing the oocytes three times with arrest buffer containing 20 mM uridine. Individual oocytes were shaken overnight in 10% SDS for complete dissolution, and then the radioactivity was quantified with a Beckman liquid scintillation counter. The data are presented as the mean ± SD (n = 8–12 oocytes). A representative experiment from 3 to 5 independent experiments is presented.
# [2] = substrate: C[C@H](CCC(=O)O)[C@H]1CC[C@H]2[C@@H]3[C@H](O)C[C@@H]4C[C@H](O)CC[C@]4(C)[C@H]3C[C@H](O)[C@]12C; assay: as above; format: cell-based, human; conditions: pH 7.4
# Experimental: as §1, §2
# [3] = other: printed in picture Fig. 2B
molecule,measurement,setting,value
"Nc1ncnc2c1ncn2[C@@H]1O[C@H](CO)[C@@H](O)[C@H]1O [Ado, adenosine]",Km,ENT2; read-out: Km of ENT2 for Ado transport,~100 µM
same,Km,ENT3,2000 µM
Nc1nc2c(ncn2[C@@H]2O[C@H](CO)[C@@H](O)[C@H]2O)c(=O)[nH]1 [guanosine],Km,"ENT2; cloned ENT2-expressing ENT-deficient PK15 cells, read-out: km for guanosine, ENT2",2700 µM
B1,Km,"[1]; other: oocytes, Fig. 2B",491 µM
same,Km,[1]; [3],500 µM
same,Km,"[2]; other: oocytes, Fig. 2B",195 µM and 200 µM
same,Km,[2]; [3],200 µM
